One substance from PMC4767637 can be followed below.

This test concerns the target STAT3 (127-711)-His6 I568F (HIES mutant) (human) (UniProt P40763). Nature of the test: ITC. (In general: ITC needs no label: the signal is the heat of the interaction.)

Chain of STAT3 (127-711)-His6 I568F (HIES mutant) (human) (P40763 127-711 I568F): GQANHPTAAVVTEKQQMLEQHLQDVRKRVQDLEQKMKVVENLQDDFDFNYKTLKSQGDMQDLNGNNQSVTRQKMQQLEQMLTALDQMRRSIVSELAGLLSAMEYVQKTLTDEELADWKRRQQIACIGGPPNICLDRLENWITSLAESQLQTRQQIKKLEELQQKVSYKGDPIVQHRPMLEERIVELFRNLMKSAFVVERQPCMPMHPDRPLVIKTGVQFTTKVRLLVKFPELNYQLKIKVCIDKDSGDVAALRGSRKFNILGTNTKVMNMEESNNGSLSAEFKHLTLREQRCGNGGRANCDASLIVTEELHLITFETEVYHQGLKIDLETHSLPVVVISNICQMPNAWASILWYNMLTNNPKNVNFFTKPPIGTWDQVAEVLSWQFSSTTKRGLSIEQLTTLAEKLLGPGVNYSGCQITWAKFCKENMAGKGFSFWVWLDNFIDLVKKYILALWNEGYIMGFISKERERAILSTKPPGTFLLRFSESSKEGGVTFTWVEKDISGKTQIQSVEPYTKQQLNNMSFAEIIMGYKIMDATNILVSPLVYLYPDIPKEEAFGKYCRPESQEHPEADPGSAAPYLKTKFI

For the substance “phosphotyrosine peptide derived from gp130 (pY904)”, the fold reduction in binding affinity against WT STAT3 is 5 fold.
